This sample holds only a part of the variants without activity.
B1: TPR 5TU (parent)
chain: GGAUCUUCUCGAUCUAACAAAAAAGACAAAUCUGCCACAAAGCUUGAGAGCAUCUUCGGAUGCAGAGGCGGCAGCCUUCGGUGGCGCGAUAGCGCCAACGUUCUCAACUAUGACACGCAAAACGCGUGCUCCGUUGAAUGGAGUUUAUCAUG

Variants of: B1
Test: polymerase ribozyme fitness, log enrichment relative to wild type (log ratio); higher = more active; in vitro selection for triplet polymerase activity
In short: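 After PCR construction and transcription, each subunit's mutant library from a heterodimeric triplet polymerase ribozyme was annealed with a biotinylated primer, the partner subunit and triplets. Incubation was frozen, at −7 °C, and extended constructs were gel-excised, bound to streptavidin beads and amplified by RT-PCR, in one selection round done in triplicate. Fitness is the logarithm of a genotype's enrichment divided by that of the wild type, from inverse-variance-weighted replicate averages of Illumina-sequenced inputs and outputs. The base of the logarithm is 2, and genotypes needed ≥10 input reads and ≥1 read per output.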

Variant | polymerase ribozyme fitness (log ratio)
A47C C57A C105A G126A | -3.51
A28U A29U G74C C79G A89C C118A A120U A122G C125G | ≤ -4.2
C14G G83C G117U | -2.76
U31A C96U C99A | -1.23
A121C A137U A147G | ≤ -4.2
U13G A21U C57U G68A A73U G92C C103A | ≤ -4.2
C38A A60U G84A U134C | -1.6
C27A U44A C85A A107C U148C | ≤ -4.2
C57A A91G U101A A142G | -4.08
G86U C123A | -1.99
G46C C93U C96U | -2.86
C8A U53A | -3.45
A60G C93U U104G G143C | -3.09
A28G G88U G92A A98G G133U U144A | ≤ -4.2
G50C C123U | -2.4
A17G U109G G140U | -3.77
U53C C54U C96A A120U | -0.901
G58C C85U G117U | -0.00983
A49C A52U A60G G94A A97G | -3.63
C51U C93U U109G C116U | -3.68
A20U A21G A30G C99A | -4.05
C54A A64C C85A G92U A121U C125G U134G U139G | ≤ -4.2
G59A G83C A89U | -1.39
C8G A21C | -3.31

Variant | polymerase ribozyme fitness (log ratio)
A52C C54U U55G G67C G71U C85U G143C | ≤ -4.2
U13C C18G A21U A40C U53G A60U U61A G94U G100A G126A | ≤ -4.2
A21U G84A A89G | -1.44
C18U G86A G140A | ≤ -4.2
G84A G86U C95A C99U U101A C123G | ≤ -4.2
C8G U82G G84U C85U A107C | ≤ -4.2
U7A C27A U31G A66U U146G A150U | ≤ -4.2
G81C G92A | -3.5
A23U A24C A30G A39G C116U | ≤ -4.2
C57U C76U A98G | -0.421
G25U U55G A73G A120C C123U | -3.39
C10U A39G C54G C63A G70C C93U G141A | ≤ -4.2
A40U G83C C96A G152A | -3.95
U6C C10A U13A C35G C36G A37G G81U G83C | ≤ -4.2
U56A C99G G140U | -3.99
C14U C54U | -1.87
C76U A137G | -0.882
A28G U33G G34U G59C U104G C118U | ≤ -4.2
A20G U77A C85U C105U U135A A138G | ≤ -4.2
A21U G50C C54U C63U G94A | -0.0103
U6A A19C A24U A28G G141C G152A | -3.96
G25U | -1.73
A16G A52C U53A G92C U109G A137C U139G | ≤ -4.2
U144C | 0.0778

Variant | polymerase ribozyme fitness (log ratio)
C35U G86A C105A A137U | ≤ -4.2
A26C C105U | -2.13
U13G A91U | ≤ -4.2
A89C A107C | -4.06
A29G U55G G94A C108A A119G | ≤ -4.2
C54U C96G | -0.994
G58C A89U C95A G126U | -0.892
A19G G48C G86A C103U C108G | ≤ -4.2
G50U A52C A107G | ≤ -4.2
A110C A121U | -4.04
U9C G58C A91G C105G A110G | ≤ -4.2
A22U G25C G48C A122U | ≤ -4.2
C27G G80A G81C | -4.11
G88A | -3.75
C93G C132G | ≤ -4.2
C96U A115C | -2.68
A22G U44A C85A | ≤ -4.2
C8U C10G C35G C57A A66U G86U U134C U139C U148A | ≤ -4.2
G62C A137C U148G | ≤ -4.2
U55A C87G U101G G143A | ≤ -4.2
C32U U82C | -1.74
C27G C36G C85U | ≤ -4.2
C54U A60C C75A A91U C96U A97G A107C G136A A137U | ≤ -4.2
C27U C63U C76U G81C U101G U146G | -3.39

Variant | polymerase ribozyme fitness (log ratio)
C5G U53A U56A G68C G94A C118U U148A A150C | ≤ -4.2
A3C A23U A41C C43U U61A A64C C96U A107C A115G | ≤ -4.2
C18U U56A U90G C99U A120C C132U U134C | ≤ -4.2
A41C G50A G86A A98G | -3.62
C32U C87G A142U | ≤ -4.2
U13G A28U G71A G88C | ≤ -4.2
A97G G133A | -3.61
A22U C63U | 0.542
U55G G83U C95U A147C | -1.88
C18G A28U A66U G94U C95A | ≤ -4.2
C36G A49C G58A G70C U82G A98U U104A A106G | ≤ -4.2
A40C C96U A150G | -1.3
C5A A28U | -3.92
C75G C76U A97U G141C | ≤ -4.2
A30C A91C A98U A119U | ≤ -4.2
C14G A28U G50A A119C A147U | ≤ -4.2
C14A G34U G74C G84U G143A | ≤ -4.2
G50C G86A C103G G124U C125U G126C | ≤ -4.2
A147C | 0.176
C93A G141A | -1.74
C10G C69G | -4.16
A29G G50A G67U C75G C85A C123G C125G C132U A142C | ≤ -4.2
U53A | -0.874
A24C C85U | -3.65

Variant | polymerase ribozyme fitness (log ratio)
C32G U33A C43G G81U G84A A142G | ≤ -4.2
C36A G117U U148C | ≤ -4.2
U9A A64G A89U G92A C131G | ≤ -4.2
U77G G84A G117U U135G | ≤ -4.2
C99U U144A | -1.02
A16U A28U C54U G117C | ≤ -4.2
A49C A60G G67U C85U C93G A97G | ≤ -4.2
C18G A49C C57G C87A G128U U146G | ≤ -4.2
C51U A52G C76A A89G A97C C105U A119C G141U | ≤ -4.2
A24C A49U C87A G92A G140U | ≤ -4.2
U15A C43U U53G C76A U102G A119G G128U U135G A142U | ≤ -4.2
C5A A28G G34C G74A U82A G86A C93A A97C | ≤ -4.2
G84U G133A | ≤ -4.2
C95G A98G | -1.57
C14U A19G G94A A106G C131G | ≤ -4.2
A19U A22U A47C G80A G86A C87A C95U U104G A120U | ≤ -4.2
A22C A121U | -0.324
C35U C85G C132U | -3.12
A21U G92A | -2.72
U13A C76U C105G C114U | ≤ -4.2
C54G C63G C93U A115U C149G | ≤ -4.2
A39C G48C G88U A97G U144G | ≤ -4.2
G59C U77A C96G C105U G140A | ≤ -4.2
U55C C85A A91C G126A | -4.06

Variant | polymerase ribozyme fitness (log ratio)
C99A G143A | -2.02
U31C G94C C105A | -1.61
U78C A120U G133U G141A | -3.21
C85G C118G | -2.62
C85U G143C | -1.66
G81U A97U C105U | 0.976
C14A A37G C93U | -4.13
U45G C85U | -0.0479
U53A C149U | -1.57
A30U G42U A119G A138G | ≤ -4.2
C87G C99U C116G | -3.37
U31C G83C U111C G152A | -3.66
U56G G84A A91G A115G | -4.1
U13G G46A G83A U101A U134A U135C | ≤ -4.2
U13A A39U U45A G59C C72U G94C U101A A142C | ≤ -4.2
C93G C125G A150U | -4.06
A26G C35G C57A G81C C87G | ≤ -4.2
A12G U33C A73G U130G | -3.56
A17C C76U C93G U102G C105A | ≤ -4.2
C69A C76G C79A U102A G141C | ≤ -4.2
G83C A97G C108G | ≤ -4.2
A40C U55G C63U C93U | -0.65
A23U G42C G88C C105G C116G | ≤ -4.2
A39G A52U U56A C75U U78G U104A U144C | ≤ -4.2

Variant | polymerase ribozyme fitness (log ratio)
A49G G88U C96G U144C U148C U151G | ≤ -4.2
G50U A89U C93U C99U U145A | -3.4
A12G G70A C85U C105G C116A | ≤ -4.2
C75G C96A | -3.52
A52G G94C U102C C131U | -1.64
A21G C116G U144G | 1.13
U61C C87A | ≤ -4.2
C32G G50C C51U G88A A110G | -4.19
A89G C93A | -3.94
G50C A89U G94U C96U A115G | ≤ -4.2
A12G C54A C99U | -1.32
A52C G71C | ≤ -4.2
G81U C85U | -0.466
A28U U45A C57U A60C G84U A98U G117C | ≤ -4.2
A17G A21G A52U U56A A91G | -4
C8U A29G G62A C93U C95A U144A | ≤ -4.2
C38A C95A U135A | -1.76
A12U A20G A52U G141A | -3.17
U45A C57A C95U | -2.12
A22C C27G C99U A106U G140U A147G | ≤ -4.2
A39C U44C C93U C108G A121C U139G | ≤ -4.2
C57G C96G U104G | -4.16
A19U U53C C87G | ≤ -4.2

From the RNAGym collection of RNA variant scans (doi:10.1073/pnas.2313332121)
